Results: US20220251184A1 (Regeneron, published 2022)
Changes are numbered by the printed parent chain. Each block holds one binder with its values, some of them ahead of it.

Tests used:
[1] = target: T1, mouse BMP6 (R&D Systems, Cat #6325-BM) (mouse, UniProt P20722 372-510, limits assumed); assay: SPR (MASS-1), mAb captured on anti-human Fc, mBMP6 in solution, 37 C
T1 construct: Bought protein (R&D Systems 6325-BM or 6325-BM/CF); also called mBMP6
T1 sequence: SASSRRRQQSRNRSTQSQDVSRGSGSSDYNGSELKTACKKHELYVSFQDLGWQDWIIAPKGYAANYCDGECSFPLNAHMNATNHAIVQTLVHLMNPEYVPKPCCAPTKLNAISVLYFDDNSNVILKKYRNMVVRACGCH
Protocol: (§1) Equilibrium dissociation constants (KD values) for human and mouse BMP6 binding to purified anti-BMP6 monoclonal antibodies of this invention were determined using a real-time surface plasmon resonance (SPR) biosensor instrument, MASS-1. All binding studies were performed in 10 mM HEPES, 150 mM NaCl, 3 mM EDTA, 1 μg/mL Heparin, and 0.05% v/v Surfactant Tween-20, pH 7.4 (HBS-EHT) running buffer at 25° C. and 37° C. The HCA sensor surface was first derivatized by amine coupling the monoclonal mouse anti-human Fc antibody (GE, #BR100839) and anti-BMP6 monoclonal antibodies were individually captured. Different concentrations of human BMP6 reagents (hBMP6; R&D Systems, Cat #507-BP; 60 nM-0.94 nM; 4-fold serial dilution) or mouse BMP6 (mBMP6; R&D Systems, Cat #6325-BM; 60 nM and 15 nM) prepared in HBS-EHT running buffer were injected over the captured anti-BMP6 monoclonal antibody for 4 minutes at a flow rate of 30 μL/minute, while the dissociation of BMP6 reagent bound to captured anti-BMP6 monoclonal antibody was monitored for 10 minutes in HBS-EHT running buffer. Kinetic association (kₐ) and dissociation (kd) rate constants were determined by fitting the real-time binding sensorgrams to a 1:1 binding model with mass transport limitation using Scrubber 2.0c software. Binding dissociation equilibrium constant (KD) and dissociative half-life (t½) for different anti-BMP6 monoclonal antibodies were calculated from the kinetic rate constants as: […]

[2] = target: T2, human BMP6 (R&D Systems, Cat #507-BP) (human, UniProt P22004 375-513, limits assumed); assay: SPR (MASS-1), mAb captured on anti-human Fc, hBMP6 in solution, 37 C; calculated with kd fixed at 1.00E-05
T2 construct: Bought protein (R&D Systems 507-BP or 507-BP/CF); also called hBMP6; hBMP-6
T2 sequence: T1 sequence with S21A, G23V, G25S, S26A, G31S, K39R
Protocol: as §1, with “software.” for “software. Binding dissociation equilibrium constant (KD) and dissociative half-life (t½) for different anti-BMP6 monoclonal antibodies were calculated from the kinetic rate constants as:”

[3] = target: T1, mouse BMP6 (R&D Systems, Cat #6325-BM); assay: BLI (Octet HTX), mAb captured on Protein A sensor, 100 nM ligand, 25 C
Protocol: (§2) Binding cross-reactivity of anti-BMP6 monoclonal antibodies to BMP6 family members, (Human: BMP6, BMP5, BMP7, BMP8A, BMP9, BMP10, BMP12, BMP14, BMP3b, Activin A, and GDF3 and mouse: BMP6 and GDF6) was determined using a real-time Bio-Layer Interferometry (BLI) biosensor using Octet HTX instrument. All binding studies were performed in 10 mM HEPES, 150 mM NaCl, 3 mM EDTA, 1 mg/mL BSA, 50 μg/mL Heparin, and 0.05% v/v Surfactant Tween-20, pH 7.4 (HBS-EBHT) buffer at 25° C. with the plate shaking at a speed of 1000 rpm. To assess binding cross-reactivity, Protein A coated Octet biosensor (Pall ForteBio Corp., #18-5010) was first dipped in wells containing […] of anti-BMP6 monoclonal antibodies for 4 minutes followed by submerging in wells containing 100 nM of different BMP6 family members for 4 minutes. The biosensors were washed in HBS-EBHT buffer in between every step of the experiment. At the end of each cycle, the Protein A biosensor was regenerated using three alternate 5 second dips in 10 mM Glycine pH 2.0 and 10 second dip HBS-EBHT buffer. The real-time binding response was monitored during the course of the experiment and the binding response at the end of every step was recorded and tabulated as shown in Tables 8A and 8B.

Human BMP8A = target: T3, Human BMP8A (human, UniProt Q7Z5Y6 264-402, limits assumed); assay: as above
T3 sequence (looked up): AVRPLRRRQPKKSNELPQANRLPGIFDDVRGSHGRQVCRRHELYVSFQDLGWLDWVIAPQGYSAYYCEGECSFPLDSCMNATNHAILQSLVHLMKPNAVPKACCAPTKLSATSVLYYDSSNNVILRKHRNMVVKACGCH
Protocol: as §2

Human BMP7 = target: T4, Human BMP7 (human, UniProt P18075 293-431); assay: as above
T4 sequence (looked up): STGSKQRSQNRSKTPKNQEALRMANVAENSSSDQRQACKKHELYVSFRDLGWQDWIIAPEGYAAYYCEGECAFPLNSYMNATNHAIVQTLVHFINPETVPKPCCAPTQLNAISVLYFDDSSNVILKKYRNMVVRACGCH
Protocol: as §2

Mouse GDF6 = target: T5, Mouse GDF6 (mouse, UniProt P43028 335-454, limits assumed); assay: as above
T5 sequence (looked up): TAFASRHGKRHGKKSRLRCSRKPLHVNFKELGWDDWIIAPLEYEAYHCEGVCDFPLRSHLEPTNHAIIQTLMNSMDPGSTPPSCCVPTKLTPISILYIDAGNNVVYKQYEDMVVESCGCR
Protocol: as §2

[4] = target: T2, human BMP6 (R&D Systems, Cat #507-BP); assay: SPR (MASS-1), mAb captured on anti-human Fc, hBMP6 in solution, 37 C; 37 C
Protocol: as §1, with “software.” for “software. Binding dissociation equilibrium constant (KD) and dissociative half-life (t½) for different anti-BMP6 monoclonal antibodies were calculated from the kinetic rate constants as:”

Kd [1]: 4 nM
koff [1]: 9.43e-05 s⁻¹
kon [1]: 23500 M⁻¹ s⁻¹
t1/2 [1]: 2.05 h
Kd [2]: ≤ 0.24 nM
t1/2 [2]: ≥ 19.2 h
binding response [3]: 0.09 nm
binding response (Human BMP8A): 0 nm
binding response (Human BMP7): 0 nm
binding response (Mouse GDF6): -0.02 nm
B1: H4H17871P (antibody, V domains shown)
VH: EVQLVESGGGLVQPGGSLRLSCAASGFTFNNYAMSWVRQAPGKGLEWVSAISGSGDSTYYADSVKGRFTISRDNSKNTLYLQMNSLRAEDTAVYYCAKRSRSSPFDPWGQGTLVTVSS
VL: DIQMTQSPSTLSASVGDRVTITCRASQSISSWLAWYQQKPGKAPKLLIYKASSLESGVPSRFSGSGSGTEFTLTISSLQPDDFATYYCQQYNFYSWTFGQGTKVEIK
notes: Fully human antibody; also called anti-BMP6 monoclonal antibody; BMP6 antibody of the invention

koff [4]: 8.17e-05 s⁻¹
Kd [1]: 6.46 nM
koff [1]: 0.000154 s⁻¹
kon [1]: 23800 M⁻¹ s⁻¹
t1/2 [1]: 1.25 h
binding response [3]: 0.09 nm
binding response (Human BMP8A): -0.02 nm
binding response (Human BMP7): 0.05 nm
binding response (Mouse GDF6): -0.02 nm
B2: H4H17855P (antibody, V domains shown)
VH: B1 VH with N30S, N31S, D56G, S57R, A61T, I70M, S100P, R101Y, S102N
VL: EIVLTQSPGTLSLSPGEGATLSCRASQSVSSSYLAWYQQKPGQAPRLLIYGASSRATGIPDRFSGSGSGTDFTLTISRLEPEDFVVYYCQHFGGTPFTFGGGTKVEIK
notes: as for B1
